B1: human-mouse chimeric TNFR2 monoclonal antibody 12E12-hFc (antibody, V domains shown)
VH: EVQLQQSGAELVKPGASVKLSCTVSGFNIKDFYIHWVKQRPEQGLEWIGRVDPEDGNTEYAPNFQDRATMTTDTSSNTAYLQLSSLTSVDTAVYYCSTWDGFSYFDYWGLGTTLTVSS
VL: QAVVTQESALTTSPGETVTLTCRSSTGPVTTNNYANWVQEKPDHLFTGLIGGTNDRAPGVPARFSGSLIGDKTALTITGTQTEDEAVYFCALWYRNHWVFGGGTKLTVL
notes: Mouse V regions of clone 12E12 with human constant regions; also called human-mouse chimeric 12E12 antibody
B2: human-mouse chimeric TNFR2 monoclonal antibody 27F6-hFc (antibody, V domains shown)
VH: EVQLQQSGTVLARPGASVKMSCKTSGYTFTSYWMHWVKQRPGQGLEWIGTIYPGNSDTSYNQKFKGKAKLTAVTSASTAYMELNSLTNEDSAVFYCTRENLLLRSYFFDYWGQGTTLTVSS
VL: DIVMTQSPASLAVSLGQRATISCKASQSVDYDGDSYLNWYQQKPGQPPKLLIYAASNLPSGIPARFSGSGSGTDFTLNIHPVEEEDAATYYCQQSNEDPRTFGGGTKLEIK
notes: Mouse V regions of clone 27F6 with human constant regions

Columns and labels:
[1] = target: T1, human TNFR2 on the cell membrane (human, UniProt P20333 23-461); test: flow cytometry on human PBMC, CD3+ T cells
T1 construct: whole, on cells; One molecule for all cell formats; also called TNFR2-CHO cells; CHO-TNFR2
T1 sequence (looked up): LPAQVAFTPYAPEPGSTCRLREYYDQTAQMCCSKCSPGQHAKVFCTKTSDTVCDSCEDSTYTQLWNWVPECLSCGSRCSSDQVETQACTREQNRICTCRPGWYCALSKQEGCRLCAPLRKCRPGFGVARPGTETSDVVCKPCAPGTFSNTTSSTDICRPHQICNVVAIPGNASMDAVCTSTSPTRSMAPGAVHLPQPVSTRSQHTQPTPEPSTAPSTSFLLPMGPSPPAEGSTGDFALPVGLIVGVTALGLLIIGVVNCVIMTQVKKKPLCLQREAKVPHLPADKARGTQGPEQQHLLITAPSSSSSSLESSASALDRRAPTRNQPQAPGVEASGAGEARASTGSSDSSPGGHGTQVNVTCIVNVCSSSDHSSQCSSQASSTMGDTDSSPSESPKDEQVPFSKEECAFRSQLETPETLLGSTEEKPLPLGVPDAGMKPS
Description: Purified anti-human TNFR2 human-mouse chimeric monoclonal antibodies were co-cultured with PBMC cells (Oricells) and stained. The binding of the antibody was analyzed by flow cytometry. The specific steps are as follows: PBMC cells (Oricells) were counted, centrifuged, resuspended, then added to a 96-deep well plate, and the supernatant was discarded. Diluted anti-TNFR2 monoclonal antibodies were added.

[2] = target: T1, human TNFR2 on the cell membrane; test: flow cytometry, Jurkat-TNFR2 cells
Description: (§1) Purified human-mouse monoclonal antibodies against TNFR2 were co-cultured with TNFR2 positive Jurkat cells (Jurkat cells were transfected with pcDNA3.4-TNFR2 plasmid using conventional methods, and after screening, stable and highly expressed TNFR2 Jurkat cell lines were obtained) and stained. The antibody binding intensity was analyzed by flow cytometry. The specific steps are as follows: Jurkat-TNFR2 was counted, centrifuged, resuspended, then added to a 96-deep well plate, and the supernatant was discarded. The anti-TNFR2 antibody was gradient diluted, and added to the 96-deep well plate, After incubation and wash, the secondary antibody FITC-anti-human IgG (Abcam: 6854) was added, and the samples were detected using Beckman CytoFLEX.

[3] = target: T2, TNFR2-His (Sino Biological, 10417-H08H, NP_001057.1 Met1-Asp257, with multi-histidine tag expressed on … (human, UniProt P20333 23-257)); test: ELISA, plate coated with TNFR2-His
T2 construct: range 1-257; Bought protein; also called recombinant human TNFR2 protein; TNFR2-His antigen; not shown: C-terminal multi-histidine tag
T2 sequence (looked up): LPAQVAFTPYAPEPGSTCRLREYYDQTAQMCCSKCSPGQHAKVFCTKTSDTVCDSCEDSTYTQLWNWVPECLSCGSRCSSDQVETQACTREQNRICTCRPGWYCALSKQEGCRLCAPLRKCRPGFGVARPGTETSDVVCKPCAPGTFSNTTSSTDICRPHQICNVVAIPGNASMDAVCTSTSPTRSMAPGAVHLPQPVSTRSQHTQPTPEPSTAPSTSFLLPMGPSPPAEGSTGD
Description: To determine whether the human-mouse chimeric TNFR2 monoclonal antibody of the present invention can bind to recombinant human TNFR2 protein, in vitro ELISA test was conducted. Similar to the method described above, The plate was coated with TNFR2-His (Sino Biological, 10417-H08H, Assessment #NP_001057.1.Met1-Asp257, with multi-histidine tag expressed on C-terminus) antigens, and blocked with BSA, then added with gradient diluted human-mouse chimeric TNFR2 monoclonal antibodies for incubation. Then, secondary antibody Ap-anit-human IgG Fc (JacksonImmuno Research, 109-055-098) was added for incubation After TMB development, ELISA reading was performed.

[4] = target: T1, human TNFR2 on the cell membrane; test: flow cytometry on Jurkat-TNFR2 cells
Description: as §1

[5] = target: T2, TNFR2-His (Sino Biological, 10417-H08H, …); test: ELISA, coated TNFR2-His
Procedure, shortened: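 Recombinant human TNFR2 with a C-terminal His tag was coated onto plates, which were then blocked. Antibodies in serial dilution were incubated on the plates, followed by an enzyme-labelled anti-IgG secondary antibody. After TMB development, plates were read on a microplate reader, and EC50 was derived from the dilution series.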

[6] = target: T2, TNFR2-His (Sino Biological, 10417-H08H, …); test: BLI, antibody captured on AHC probe, TNFR2 in solution
Description: The GATOR (ProbeLife) detection instrument and AHC (Pall, 185064), Human antibody Capture probe were used to detect the dissociation constant (Kd) of human-mouse chimeric TNFR2 monoclonal antibody.
The human-mouse chimeric TNFR2 monoclonal antibodies were diluted to 50 nM in binding buffer (Q buffer [PBS (10 mM PH7.4)+0.02% Tween 20+0.2% BSA). The recombinant human TNFR2 protein was diluted in Q buffer with a 2-fold gradient starting from the highest concentration of 100 nM. The kinetic association assay was conducted by placing the antibody capture sensor in the continuously diluted antigen solutions mentioned above. The Octet Data Acquisition software was pened and the New Kinetics Experiment-Basic Kinetics mode was selected.

[7] = target: T1, human TNFR2 on the cell membrane; test: flow cytometry on ConA-stimulated spleen cells of hTNFR2-KI mice, mCD3+ T cells
Description: The cells were stained again with Cy-3 anti-human IgG and FITC anti-mCD3 (BD, 555274) after washing, under the same incubation conditions. After washing, the detection was performed.

Row | percent of cells in the upper right quadrant (Q1-UR, CD3+ and anti-human IgG Fc+) [1] [%] | EC50 [2] [µg/mL] | EC50 [3] [µg/mL] | EC50 [4] [µg/mL] | EC50 [5] [nM] | Kd [6] [nM] | koff [6] [s⁻¹] | kon [6] [M⁻¹ s⁻¹] | percent of cells in the upper right quadrant (Q2-UR, mCD3+ and anti-hIgG+) [7] [%] | Binder
1 | 45.6 | 0.012 | 0.0396 | 0.0123 | 0.265 | 3.9 | 0.00304 | 780000 | 46.2 | B1
2 | 42.3 | 0.036 | 0.0415 | 0.0357 | 0.278 | 9.38 | 0.00761 | 811000 | 36 | B2
